The labels stand for the following.
B1: BRI1-GFP (receptor, Arabidopsis thaliana, UniProt O22476 24-1196, looked up)
chain: FQASPSQSLYREIHQLISFKDVLPDKNLLPDWSSNKNPCTFDGVTCRDDKVTSIDLSSKPLNVGFSAVSSSLLSLTGLESLFLSNSHINGSVSGFKCSASLTSLDLSRNSLSGPVTTLTSLGSCSGLKFLNVSSNTLDFPGKVSGGLKLNSLEVLDLSANSISGANVVGWVLSDGCGELKHLAISGNKISGDVDVSRCVNLEFLDVSSNNFSTGIPFLGDCSALQHLDISGNKLSGDFSRAISTCTELKLLNISSNQFVGPIPPLPLKSLQYLSLAENKFTGEIPDFLSGACDTLTGLDLSGNHFYGAVPPFFGSCSLLESLALSSNNFSGELPMDTLLKMRGLKVLDLSFNEFSGELPESLTNLSASLLTLDLSSNNFSGPILPNLCQNPKNTLQELYLQNNGFTGKIPPTLSNCSELVSLHLSFNYLSGTIPSSLGSLSKLRDLKLWLNMLEGEIPQELMYVKTLETLILDFNDLTGEIPSGLSNCTNLNWISLSNNRLTGEIPKWIGRLENLAILKLSNNSFSGNIPAELGDCRSLIWLDLNTNLFNGTIPAAMFKQSGKIAANFIAGKRYVYIKNDGMKKECHGAGNLLEFQGIRSEQLNRLSTRNPCNITSRVYGGHTSPTFDNNGSMMFLDMSYNMLSGYIPKEIGSMPYLFILNLGHNDISGSIPDEVGDLRGLNILDLSSNKLDGRIPQAMSALTMLTEIDLSNNNLSGPIPEMGQFETFPPAKFLNNPGLCGYPLPRCDPSNADGYAHHQRSHGRRPASLAGSVAMGLLFSFVCIFGLILVGREMRKRRRKKEAELEMYAEGHGNSGDRTANNTNWKLTGVKEALSINLAAFEKPLRKLTFADLLQATNGFHNDSLIGSGGFGDVYKAILKDGSAVAIKKLIHVSGQGDREFMAEMETIGKIKHRNLVPLLGYCKVGDERLLVYEFMKYGSLEDVLHDPKKAGVKLNWSTRRKIAIGSARGLAFLHHNCSPHIIHRDMKSSNVLLDENLEARVSDFGMARLMSAMDTHLSVSTLAGTPGYVPPEYYQSFRCSTKGDVYSYGVVLLELLTGKRPTDSPDFGDNNLVGWVKQHAKLRISDVFDPELMKEDPALEIELLQHLKVAVACLDDRAWRRPTMVQVMAMFKEIQAGSGIDSQSTIRSIEDGGFSTIEMVDMSIKEVPEGKL
notes: Expressed in transgenic Arabidopsis; solubilised microsomal proteins used for co-immunoprecipitation; also called BRI1-GFP protein expressed from the BRI1 promoter; not shown: GFP tag
B2: BRK1-myc (enzyme)
chain: GCCQSLFSGDNPLGKDGVQPQPLSQNNHGGATTADNGGSGGASGVGGGGGGGGIPSFSEFSFADLKAATNNFSSDNIVSESGEKAPNLVYKGRLQNRRWIAVKKFTKMAWPEPKQFAEEAWGVGKLRHNRLANLIGYCCDGDERLLVAEFMPNDTLAKHLFHWENQTIEWAMRLRVGYYIAEALDYCSTEGRPLYHDLNAYRVLFDEDGDPRLSCFGLMKNSRDGKSYSTNLAYTPPEYLRNGRVTPESVTYSFGTVLLDLLSGKHIPPSHALDMIRGKNIILLMDSHLEGKFSTEEATVVVELASQCLQYEPRERPNTKDLVATLAPLQTKSDVPSYVMLGIKKQEEAPSTPQRPLSPLGEACSRMDLTAIHQILVMTHYRDDEGTNELSFQEWTQQMKDMLDARKRGDQSFREKDFKTAIDCYSQFIDVGTMVSPTVFGRRSLCYLLCDQPDAALRDAMQAQCVYPDWPTAFYMQSVALAKLNMNTDAADMLNEAAQLEEKRQRGGRGS
notes: Full-length BRK1 with C-terminal 4x Myc tag, expressed from the 35S promoter in Arabidopsis; also called BRK1-myc protein; not shown: 4x Myc tag of the pGWB17 vector

Test [1] has as its target T1, Protein A bead alone (UniProt P38507 37-477).
T1 construct: IP control without antibody; also called Protein A Sepharose beads
Nature of the test: immunoprecipitation control from microsomal proteins, anti-GFP immunoblot. As for the experimental part:
Microsomal proteins (Input, lane 1) from det2 mutant plants expressing BRI1-GFP under the control of BRI1 promoter were immunoprecipitated (IP) using polyclonal anti-BRK1 antibodies affinity-purified using an BRK1 antigen column (lane 3). Protein A bead alone was used as IP control (lane 2). Immunoblots were probed using anti-GFP antibodies. BRI1-GFP can be pulled down by anti-BRI1 antibody but not by protein A bead.
All procedures were performed at 4° C. Rosette leaves of 3-week-old Arabidopsis plants were homogenized with mortar and pestle in the grinding buffer (20 mM HEPES, pH 7.5, 40 mM KCl, 250 mM sucrose, 5 mM MgCl₂ and protein inhibitors) at a ratio of 3 mL buffer per gram of tissue. Homogenate was filtered through 2 layers of Miracloth (CalBiochem, La Jolla, Calif.), and centrifuged at 10,000 g for 10 minutes. The supernatant was further centrifuged at 100,000 g for 60 min to pellet the microsomal fraction. Microsomes were re-suspended in 0.5 mL grinding buffer and sonicated for 10 sec. Triton X-100 was added to a final concentration of 1%. After mixing, the extracts were centrifuged at 20,000 g for 10 min. Supernatant was diluted 5 times with grinding buffer to reduce Triton X-100 to 0.2%. […] Samples were analyzed by SDS-PAGE and immunoblotting.
Background: In western blotting, separated proteins are transferred to a membrane and probed.

For test [2], the target named is B1. Briefly: co-immunoprecipitation with anti-GFP antibodies after 100 nM brassinolide for 30 min, anti-myc immunoblot (FIG. 2D).

As for B1, in test [1], the binding result is “no binding”.
B2: in test [2], the “amount of co-immunoprecipitated BRK1-myc after BR treatment relative to the untreated sample” value is 46 % of the untreated sample.

For the origin of these results see patent US20100043097A1 (CARNEGIE INSTITUTION OF WASHINGTON, published 2010).
